The text below walks through data of PMC3594540.

By Kd is commonly meant the equilibrium constant for the complex coming apart. As usually defined, the Ki is a measure of affinity in units of concentration, obtained from inhibition or displacement.

Test [1] concerns the target murine Gαq (residues 7–359), biotinylated for bead binding (murine) (UniProt P21279). Kind of test: flow cytometry protein interaction assay. Background: A flow cytometer gives signals particle by particle.
For a further test, the target named is PLCβ3-Δ892 (human) (UniProt Q01970).
A further test addresses Gαq-ΔN (murine) (UniProt P21279). Kind of test: flow cytometry protein interaction assay.
The next test has as its target Gαq D296A P298D (murine) (UniProt P21279). Kind of test: flow cytometry protein interaction assay.
In a further test the target is Gαq K311A (murine) (UniProt P21279). Kind of test: flow cytometry protein interaction assay.
Chain of Gαq K311A (murine) (P21279 7-359 K311A): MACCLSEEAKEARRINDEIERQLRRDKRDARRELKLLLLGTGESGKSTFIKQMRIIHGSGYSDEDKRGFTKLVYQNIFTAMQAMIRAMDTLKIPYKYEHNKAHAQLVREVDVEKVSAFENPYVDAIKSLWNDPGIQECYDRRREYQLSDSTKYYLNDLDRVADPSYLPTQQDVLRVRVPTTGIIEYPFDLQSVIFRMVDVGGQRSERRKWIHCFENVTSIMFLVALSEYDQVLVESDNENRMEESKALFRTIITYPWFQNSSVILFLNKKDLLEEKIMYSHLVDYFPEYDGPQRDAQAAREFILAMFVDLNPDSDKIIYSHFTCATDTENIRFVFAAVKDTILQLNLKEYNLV
For another test, the target named is PLCβ3-Δ892 T652E (human) (UniProt Q01970).

Chain of Gαq-ΔN (murine) (P21279 37-359, stated change not applied): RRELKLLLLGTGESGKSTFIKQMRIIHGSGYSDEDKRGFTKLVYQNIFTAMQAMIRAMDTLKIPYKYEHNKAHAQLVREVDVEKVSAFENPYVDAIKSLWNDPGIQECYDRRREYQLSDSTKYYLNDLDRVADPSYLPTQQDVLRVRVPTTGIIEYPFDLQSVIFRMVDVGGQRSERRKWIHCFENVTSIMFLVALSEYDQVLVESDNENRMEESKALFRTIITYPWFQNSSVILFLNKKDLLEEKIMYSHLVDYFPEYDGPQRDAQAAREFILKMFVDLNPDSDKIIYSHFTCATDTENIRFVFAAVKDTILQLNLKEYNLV
Chain of murine Gαq (residues 7–359), biotinylated for bead binding (murine) (P21279 7-359): as the sequence (P21279 7-359 K311A) above, with A305K counted along it
Chain of Gαq D296A P298D (murine) (P21279 7-359 D296A/P298D): as the sequence (P21279 7-359 K311A) above, with D290A, P292D, A305K counted along it
Chain of murine Gαq (residues 7–359), biotinylated for bead binding (P21279 7-359): as the sequence (P21279 7-359 K311A) above, with A305K counted along it
Chain of Gαq-ΔN (P21279 37-359, stated change not applied): as the sequence (P21279 37-359, stated change not applied) above

“AF488-labeled PLCβ3-Δ892 R872A L876A L879A (from UniProt Q01970 10-892) (domain or fragment)”: the Kd in test [1] stood at 0.04 µM. In the test with PLCβ3-Δ892 (human), “Gαq C9S C10S (from UniProt P21279 7-359) (natural protein)” gave an EC50 of Gαq-stimulated PIP2 hydrolysis ([3H]-IP3 release from liposomes) of 0.15 µM. In the test with PLCβ3-Δ892 (human), “Gαq D296A P298D (from UniProt P21279 7-359) (natural protein)” came in with an EC50 of Gαq-stimulated PIP2 hydrolysis ([3H]-IP3 release from liposomes) of 0.54 µM. Consider “Gαq K311A (from UniProt P21279 7-359) (natural protein)”, for which, in the test with PLCβ3-Δ892 (human), the EC50 of Gαq-stimulated PIP2 hydrolysis ([3H]-IP3 release from liposomes) stood at 0.15 µM. “Gαq-ΔN (from UniProt P21279 37-359) (domain or fragment)” displayed an EC50 of Gαq-stimulated PIP2 hydrolysis ([3H]-IP3 release from liposomes) with PLCβ3-Δ892 (human) of 0.059 µM. As for “PLCβ3 I1129E V1133E I1136E triple mutant (from UniProt Q01970) (enzyme)”, the Ki with Gαq-ΔN (murine) was determined as 0.078 µM; in test [1], 0.093 µM. Take “PLCβ3 L876A (from UniProt Q01970 10-1234) (enzyme)”: the inhibition constant (Ki) with Gαq D296A P298D (murine) was 0.012 µM; with Gαq K311A (murine) it was 0.016 µM; in the test with Gαq-ΔN (murine) it was 0.024 µM; in test [1] it was 0.02 µM.

Consider “PLCβ3 L876A EEE (from UniProt Q01970) (enzyme)”, for which the results for the Ki (in the test with Gαq-ΔN (murine); in test [1]) were 0.042 µM and 0.026 µM, respectively. For “PLCβ3 T652E (from UniProt Q01970) (enzyme)”, in test [1], the Ki was 0.16 µM.

The substance “PLCβ3-Δ882-937 (from UniProt Q01970 10-1234) (enzyme)” came in with a Ki in test [1] of 0.23 µM. Same read-out and setting: as for “PLCβ3-Δ882-937 L876A (from UniProt Q01970 10-1234) (enzyme)”, the figure is 0.012 µM.

Consider “PLCβ3-Δ892 (from UniProt Q01970 10-892) (domain or fragment)”, for which the Ki turned out to be 0.42 µM with Gαq D296A P298D (murine), 0.38 µM in the test with Gαq K311A (murine), 0.49 µM with Gαq-ΔN (murine) and 0.49 µM in test [1]. For “PLCβ3-Δ892 T652E (from UniProt Q01970 10-892) (domain or fragment)”, the Ki in test [1] was determined as 0.25 µM. The substance “human PLCβ3 (residues 10–1234) (from UniProt Q01970 10-1234) (enzyme)” registered a Ki in the test with Gαq K311A (murine) of 0.26 µM. As to “murine Gαq (residues 7–359), biotinylated for bead binding (from UniProt P21279 7-359) (natural protein)”, the EC50 of Gαq-stimulated PIP2 hydrolysis ([3H]-IP3 release from liposomes) with PLCβ3-Δ892 (human) was 0.059 µM; with PLCβ3-Δ892 T652E (human), 0.25 µM.
